# Measurements from paper PMC8622166 (2021).
# Substitutions are numbered along the chain they refer to. In names and notes the source's numbering stands. Where two headings read alike, the source gives them in different places.
# B1: GDI1^E121K (natural protein)
# chain: MAEQEPTAEQLAQIAAENEEDEHSVNYKPPAQKSIQEIQELDKDDESLRKYKEALLGRVAVSADPNVPNVVVTGLTLVCSSAPGPLELDLTGDLESFKKQSFVLKEGVEYRIKISFRVNRKIVSGMKYIQHTYRKGVKIDKTDYMVGSYGPRAEEYEFLTPVEEAPKGMLARGSYSIKSRFTDDDKTDHLSWEWNLTIKKDWKD
# B2: GDI1 (RHOGDI1), wild type (natural protein)
# chain: B1 chain with K121E
# B3: GDI1^2E>2K (E163K and E164K) (natural protein)
# chain: B1 chain with K121E, E163K, E164K
# B4: GDI1^ΔN15 (domain or fragment)
# chain: AENEEDEHSVNYKPPAQKSIQEIQELDKDDESLRKYKEALLGRVAVSADPNVPNVVVTGLTLVCSSAPGPLELDLTGDLESFKKQSFVLKEGVEYRIKISFRVNREIVSGMKYIQHTYRKGVKIDKTDYMVGSYGPRAEEYEFLTPVEEAPKGMLARGSYSIKSRFTDDDKTDHLSWEWNLTIKKDWKD
# B5: GDI1^ΔC6 (domain or fragment)
# chain: MAEQEPTAEQLAQIAAENEEDEHSVNYKPPAQKSIQEIQELDKDDESLRKYKEALLGRVAVSADPNVPNVVVTGLTLVCSSAPGPLELDLTGDLESFKKQSFVLKEGVEYRIKISFRVNREIVSGMKYIQHTYRKGVKIDKTDYMVGSYGPRAEEYEFLTPVEEAPKGMLARGSYSIKSRFTDDDKTDHLSWEWNLTI
# B6: GDI1^ΔN25 (domain or fragment)
# chain: NYKPPAQKSIQEIQELDKDDESLRKYKEALLGRVAVSADPNVPNVVVTGLTLVCSSAPGPLELDLTGDLESFKKQSFVLKEGVEYRIKISFRVNREIVSGMKYIQHTYRKGVKIDKTDYMVGSYGPRAEEYEFLTPVEEAPKGMLARGSYSIKSRFTDDDKTDHLSWEWNLTIKKDWKD
# Assays:
# [1] = target: T1, non-isoprenylated RAC1 full-length (RAC1^FL) (human, UniProt P63000 1-192); assay: FP; mdGDP-bound RAC1
# [2] = target: T1, non-isoprenylated RAC1 full-length …; assay: FP
# [3] = target: T1, non-isoprenylated RAC1 full-length …; assay: kinetic, koff/kon
# [4] = target: T1, non-isoprenylated RAC1 full-length …; assay: stopped-flow
# [5] = target: T1, non-isoprenylated RAC1 full-length …; assay: stopped-flow; remark: listed apart in the source
# [6] = target: T1, non-isoprenylated RAC1 full-length …; assay: kinetic, koff/kon; remark: listed apart in the source
binder,measurement,setting,value
B1,Kd,[1],14 µM
B2,Kd,[2],0.96 µM
same,Kd,[3],1.03 µM
same,Kd,[1],1.2 µM
same,koff,[4],0.34 s⁻¹
B3,Kd,[1],117 µM
B4,koff,[5],0.54 s⁻¹
same,Kd,[1],102 µM
same,Kd,[6],16.8 µM
B5,koff,[5],0.59 s⁻¹
same,Kd,[1],29 µM
same,Kd,[6],21.7 µM
B6,Kd,[1],174 µM
